From patent publication US20260176319A1 (KALLYOPE, published 2026)
Starred links: 1 amine or outer side, 2 acyl side, 3 side chain; linkers in the order of their positions; H or OH if unused. Non-standard residues stand in square brackets, D forms with d. *: point of attachment. d(γGlu) = O=C(O)[C@@H](CCC(=O)[*:2])N[*:1]; C18 diacid = O=C(O)CCCCCCCCCCCCCCCCC(=O)*; γGlu = O=C(O)[C@H](CCC(=O)[*:2])N[*:1]; 2Nal = N[C@@H](Cc1ccc2ccccc2c1)C(=O)O; Palmitoyl = CCCCCCCCCCCCCCCC(=O)*; Nle = CCCC[C@H](N)C(=O)O; AEEA = NCCOCCOCC(=O)O; Sar = CNCC(=O)O

B1: Peptide 99 (peptide)
peptide: {C18 diacid}-[γGlu][AEEA][AEEA]GNH[2Nal]AV[dA]HL[Nle][Sar]-NH2
SMILES: CCCC[C@H](NC(=O)[C@H](CC(C)C)NC(=O)[C@H](Cc1c[nH]cn1)NC(=O)[C@@H](C)NC(=O)[C@@H](NC(=O)[C@H](C)NC(=O)[C@H](Cc1ccc2ccccc2c1)NC(=O)[C@H](Cc1c[nH]cn1)NC(=O)[C@H](CC(N)=O)NC(=O)CNC(=O)COCCOCCNC(=O)COCCOCCNC(=O)CC[C@H](NC(=O)CCCCCCCCCCCCCCCCC(=O)O)C(=O)O)C(C)C)C(=O)N(C)CC(N)=O
B2: Peptide 100 (peptide)
peptide: {C18 diacid}-[γGlu][AEEA][AEEA]RNHWAV[dA]HL[Nle][Sar]-NH2
SMILES: CCCC[C@H](NC(=O)[C@H](CC(C)C)NC(=O)[C@H](Cc1c[nH]cn1)NC(=O)[C@@H](C)NC(=O)[C@@H](NC(=O)[C@H](C)NC(=O)[C@H](Cc1c[nH]c2ccccc12)NC(=O)[C@H](Cc1c[nH]cn1)NC(=O)[C@H](CC(N)=O)NC(=O)[C@H](CCCNC(=N)N)NC(=O)COCCOCCNC(=O)COCCOCCNC(=O)CC[C@H](NC(=O)CCCCCCCCCCCCCCCCC(=O)O)C(=O)O)C(C)C)C(=O)N(C)CC(N)=O
B3: Peptide 7 (peptide)
peptide: Palmitoyl-[d(γGlu)][AEEA][AEEA]GNHWAV[dA]HL[Nle]-NH2
SMILES: CCCCCCCCCCCCCCCC(=O)N[C@H](CCC(=O)NCCOCCOCC(=O)NCCOCCOCC(=O)NCC(=O)N[C@@H](CC(N)=O)C(=O)N[C@@H](Cc1c[nH]cn1)C(=O)N[C@@H](Cc1c[nH]c2ccccc12)C(=O)N[C@@H](C)C(=O)N[C@H](C(=O)N[C@H](C)C(=O)N[C@@H](Cc1c[nH]cn1)C(=O)N[C@@H](CC(C)C)C(=O)N[C@@H](CCCC)C(N)=O)C(C)C)C(=O)O
B4: Peptide 96 (peptide)
peptide: Palmitoyl-[γGlu][AEEA][AEEA]GNHWAV[dA]HL[Nle]-NH2
SMILES: CCCCCCCCCCCCCCCC(=O)N[C@@H](CCC(=O)NCCOCCOCC(=O)NCCOCCOCC(=O)NCC(=O)N[C@@H](CC(N)=O)C(=O)N[C@@H](Cc1c[nH]cn1)C(=O)N[C@@H](Cc1c[nH]c2ccccc12)C(=O)N[C@@H](C)C(=O)N[C@H](C(=O)N[C@H](C)C(=O)N[C@@H](Cc1c[nH]cn1)C(=O)N[C@@H](CC(C)C)C(=O)N[C@@H](CCCC)C(N)=O)C(C)C)C(=O)O
B5: Peptide 97 (peptide)
peptide: {C18 diacid}-[γGlu][AEEA][AEEA]GNHWAV[dA]HL[Nle]-NH2
SMILES: CCCC[C@H](NC(=O)[C@H](CC(C)C)NC(=O)[C@H](Cc1c[nH]cn1)NC(=O)[C@@H](C)NC(=O)[C@@H](NC(=O)[C@H](C)NC(=O)[C@H](Cc1c[nH]c2ccccc12)NC(=O)[C@H](Cc1c[nH]cn1)NC(=O)[C@H](CC(N)=O)NC(=O)CNC(=O)COCCOCCNC(=O)COCCOCCNC(=O)CC[C@H](NC(=O)CCCCCCCCCCCCCCCCC(=O)O)C(=O)O)C(C)C)C(N)=O
B6: Peptide 98 (peptide)
peptide: {C18 diacid}-[γGlu][AEEA][AEEA][AEEA][AEEA]GNHWAV[dA]HL[Nle]-NH2
SMILES: CCCC[C@H](NC(=O)[C@H](CC(C)C)NC(=O)[C@H](Cc1c[nH]cn1)NC(=O)[C@@H](C)NC(=O)[C@@H](NC(=O)[C@H](C)NC(=O)[C@H](Cc1c[nH]c2ccccc12)NC(=O)[C@H](Cc1c[nH]cn1)NC(=O)[C@H](CC(N)=O)NC(=O)CNC(=O)COCCOCCNC(=O)COCCOCCNC(=O)COCCOCCNC(=O)COCCOCCNC(=O)CC[C@H](NC(=O)CCCCCCCCCCCCCCCCC(=O)O)C(=O)O)C(C)C)C(N)=O

Each binder was assayed against human GRP receptor (human, UniProt P30550 1-384) (assay: cell-based or functional assay).
Sequence of human GRP receptor (P30550 whole entry): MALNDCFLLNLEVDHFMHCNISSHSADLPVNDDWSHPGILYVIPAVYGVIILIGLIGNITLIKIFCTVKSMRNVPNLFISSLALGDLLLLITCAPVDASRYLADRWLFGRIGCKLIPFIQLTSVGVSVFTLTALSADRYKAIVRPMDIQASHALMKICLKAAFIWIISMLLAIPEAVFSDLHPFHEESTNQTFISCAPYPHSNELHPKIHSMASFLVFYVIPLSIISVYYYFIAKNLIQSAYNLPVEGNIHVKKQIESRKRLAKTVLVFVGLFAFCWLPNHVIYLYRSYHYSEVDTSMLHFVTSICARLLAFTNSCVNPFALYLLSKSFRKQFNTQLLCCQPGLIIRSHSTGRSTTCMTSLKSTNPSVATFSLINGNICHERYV

hIP1 GRPR EC50 [nM]	Binder
> 10000	B1
99.9	B2
0.6	B3
1.58	B4
8.91	B5
11.2	B6
